Experimental data from the nanobody polyreactivity screen of Harvey et al. (2022).

Experiment: yeast display, Sf9 membrane polyspecificity reagent, FACS + sequencing; frameworks hold sequencing errors
Summary of the method: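 In a synthetic yeast display library (Saccharomyces cerevisiae BJ5465), nanobody expression was induced with galactose for 36–48 hours. FACS gates were set low and high (top ~1%) using anti-HA fluorescence for expression and streptavidin fluorescence for binding of the Sf9 membrane reagent. Each polyreactivity label is drawn from the gate of origin.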

Sequence	polyreactivity (PSR sort gate)
QVQLVESGGGLVQAGGSLRLSCAASGRIFRYYAMGWYRPAPGKERELVAAITRSGGITYYADSVKGRFTISRDNAKNTVYLQLNSLKPEDTAVYYCAVRGAGWPSVRAFGYDYWGQGTQVTVSS	high polyreactivity
QVQLVESGGGLVQAGGSLRLSCAASGRIFRYYAMGWYRQAPGKEREFVAGISWRGSSTYYADSVKGRFTISRDNAKNTVYLQMNSLKPEDTAVYYCNRDQSNIPVTGGRFYYWGQGTQVTVSS	high polyreactivity
QVQLVESGGGLVQAGGSLRLSCAASGRIFRYYAMGWYRQAPGKERELVAAINSGGSTKYADSVKGRFTISRDNAKNTVYLQMNSLKPEDTAVYYCAAVYTPDSRYDYWGQGTQVTVSS	high polyreactivity
QVQLVESGGGLVQAGGSLRLSCAASGRIFRYYAMGWYRQAPGKERELVAAISDSSGSTYYADSVKGRFTISRDNAKNTVYLQMNSLKPEDTAVYYCRYYFGSGFYYWGQGTQVTVSS	high polyreactivity
QVQLVESGGGLVQAGGSLRLSCAASGRIFRYYAMGWYRQAPGKERELVAAISRGGSTNYADSVKGRFTISRDNAKNTVYLQMNSLKPEDTAVYYCAAVYHSRVWYGYDSKFEYWGQGTQVTVSS	high polyreactivity
QVQLVESGGGLVQAGGSLRLSCAASGRIFRYYAMGWYRQAPGKERELVAAISSRGGSTYYADSVKGRFTISRDNAKNSVYLQMNSLKPEDTAVYFCDKAVFYGPSERNYGLDYWGQGTQVTVSS	high polyreactivity
QVQLVESGGGLVQAGGSLRLSCAASGRIFRYYAMGWYRQAPGKERELVAAITRGGSTNYADSVKGRFTISRDNAKNTVYLQMNSLKPEDTAVYYCAVRGGYTWPTYNYWGQGTQVTVSS	high polyreactivity
QVQLVESGGGLVQAGGSLRLSCAASGRIFRYYAMGWYRQAPGKERELVASISSGGSTNYADSVKGRFTISRDNAKNTVYLQMNSLKPEDTAVYYCATVRRSTGGRLYYWGQGTQVTVSS	high polyreactivity
QVQLVESGGGLVQAGGSLRLSCAASGRIFRYYAMGWYRQAPGKERELVASITYSGGRTNYADSVKGRFTISRDNAKNTVYLQMNSLKPEDTAVYYCNSAYVYYYPHYRYAPTAVDYDYWGQGTQVTVSS	low polyreactivity
QVQLVESGGGLVQAGGSLRLSCAASGRIFRYYAMGWYRQAPGKERELVATISSSGGSTYYADSVKGRFTISRDNAKNTVYLQMKSLKPEDTAVYYCAADWYGYRQFHGYYWGQGTQVTVSS	high polyreactivity
QVQLVESGGGLVQAGGSLRLSCAASGRIFRYYAMGWYRQAPGKERELVAVISSSGGSTNYADSVKGRFTISRDNAKNTVYLQMNSLKPEDTAVYYCNAYGAYGGTGDYWGQGTQVTVSS	high polyreactivity
QVQLVESGGGLVQAGGSLRLSCAASGRIFRYYAMGWYRQSPGKEREFVAAINWSGGSTYYADSVKGRITISRDNAKNTVYLQMNSLKREDTAVYYCAALITQSYDYWGQGSQVTVSS	high polyreactivity
QVQLVESGGGLVQAGGSLRLSCAASGRIFRYYDMGWYRPAPGKERELVAAINSGGSTKYADSVKGRFTISRDNAKNTVYLQMNSLKPEDTAVYYCAADKARAWGYDYWGQGTQVTVSS	high polyreactivity
QVQLVESGGGLVQAGGSLRLSCAASGRIFRYYDMGWYRQAPGKEREFVAAITRSGAITYYADSVKGRFTISRDNAKNTVYLQMNSLKPEDTAVYYCAARYWSKFGYWGQGTQVTVSS	low polyreactivity
QVQLVESGGGLVQAGGSLRLSCAASGRIFRYYTMGWYRPAPGKERELVAAISWTGASTYYADSVKGRFTISRDNAKNTVYLQMNSLKPEDTAVYYCAADSYIAHHGFAMDYWGQGTQVTVSS	low polyreactivity
QVQLVESGGGLVQAGGSLRLSCAASGRIFRYYVMGWYRQAPGKEREFVASISGRGASTYYADSVKGRFTISRDNAKNTVYLQMNSLKPEDTAVYYCNADVWLLSYFPEYDYWGQGTQVTVSS	low polyreactivity
QVQLVESGGGLVQAGGSLRLSCAASGRIFRYYVMGWYRQAPGKERELVAAISRSGGTTYYADSVKGRFTISRDNAKNTVYLQMNSLKPEDTAVYYCAAVYGRDPGDYWGQGTQVTVSS	high polyreactivity
QVQLVESGGGLVQAGGSLRLSCAASGRIFRYYVMGWYRQAPGKERELVASITRVGRTNYADSVKGRFTISRDNAKNTVYLQMNSLKPEDTAFYYCAADVWWSTYRVTDDYWGQGTQVTVSS	high polyreactivity
QVQLVESGGGLVQAGGSLRLSCAASGRIFSAYTMGWYRQAPGKERELVAAITWSGGTTYYADSVKGRFTISRDNAKNTVYLQINSLKPEDTAVYYCAAESSWYVLYGSYYRSGLEYWGQGTLVTVSS	low polyreactivity
QVQLVESGGGLVQAGGSLRLSCAASGRIFSEYAMGWYRQAPGKERELVASISTSGGSTYYADSVKGRFTISRDNAKNTVYLQMNSLKPEDTAVYYCNVAYSRYPSYTYGYDHWGQGTQVTVSS	high polyreactivity
QVQLVESGGGLVQAGGSLRLSCAASGRIFSFNAMGCYRQATGKERELVAAISWSTGSTFYADSVKGRFTISRDYAKNTVFLQMNSLKPEDTAVYYCAREYYYRRGFFLRGYWGQGTQVTVSS	high polyreactivity

Sequence	polyreactivity (PSR sort gate)
QVQLVESGGGLVQAGGSLRLSCAASGRIFSFNGMGWYRQAPGKERELVAAITSSGGRTYYADSVKGRFTISRDNAKNTVYLQMNSLKPEDTAVYYCAAELAWEYYWGQGTQVTVSS	low polyreactivity
QVQLVESGGGLVQAGGSLRLSCAASGRIFSFYAMGWYRQAPGKERELVATISDGGATTYYADSVKGRFTISRDNAKNTVYLQMNSLKPEDTAVYYCAADKRGRPGLPDYDSWGQGTQVTVSS	low polyreactivity
QVQLVESGGGLVQAGGSLRLSCAASGRIFSGNAMGWYRQAPGKERELVAAISGSGGSTYYADSVKGRFTISRDNAKNTVYLQMNSLKPEDTAVYYCADRYTVRRSGYWGQGTQVTVSS	high polyreactivity
QVQLVESGGGLVQAGGSLRLSCAASGRIFSGNAMGWYRQAPGKERELVAAISRGGSTDYADSVKGRFTISRDNAKNTVYLQMNSLKPEDTAVYYCAARVNGKRRRYDYWGQGTQVTVSS	high polyreactivity
QVQLVESGGGLVQAGGSLRLSCAASGRIFSGYAMGWYRKAPGKERELVAAINRGGDTNYADSVKGRFTISRDNAKNTVYLQMNSLKPEDTAVYYCAAQYSGRYRRVPKSYPDRGDYWGQGTQVTVSS	low polyreactivity
QVQLVESGGGLVQAGGSLRLSCAASGRIFSGYAMGWYRQAPGKERELVAAITSGGSTNYADSVKGRFTISRDNAKNTVYLQMNSLKPVDTAVYYCAKYYFQYKHDYWGQGTQVTVTS	low polyreactivity
QVQLVESGGGLVQAGGSLRLSCAASGRIFSGYAMGWYRQAPGKERELVAAITWNGVSTYYADSVKGRFTISRDNAKNTVYLQMNSLKPEDTAVYYCNAEVYSDPYNDHDYWGQGTQVTVSS	low polyreactivity
QVQLVESGGGLVQAGGSLRLSCAASGRIFSHTVMGWYRQAPGKEGELVADISSSGGSTYYADSVKWRFTISRDNAKNTVDFQKNSLKPEYTAVYYCAAAPWASGTDEYWGHGTQVTVSS	low polyreactivity
QVQLVESGGGLVQAGGSLRLSCAASGRIFSHYAMGWYRQAPGKERELVASITRGGTRTYADSVKGRFTISRDNAKNTVYLQMNSLKPEDSAVYYCAADGYAYYYEWSQGDLSYDHWGQVTQVTVSS	low polyreactivity
QVQLVESGGGLVQAGGSLRLSCAASGRIFSIYAMGWYRQAPGKERELVADITWTGGGTYYADSVKGRFTISRDNAKNTVYLQMNSLKPEDTAVYYCAADLYRKWWYDYWGQGTQVTVSS	high polyreactivity
QVQLVESGGGLVQAGGSLRLSCAASGRIFSIYAMGWYRQAPGKERELVASINSGDSTYYADSVKGRFTISRDNAKNTVYLQMNSLKPEDTAVYYCAATLVTVPLYRFDYWGQGTQVTVSS	low polyreactivity
QVQLVESGGGLVQAGGSLRLSCAASGRIFSIYGMGWYRQAPGKERELVAVISGSVGITYYADSVKGRFTISRDNAKHTVYLQMNSLKPEDTAVYYCNAKVRRRKYDYWGQGTQVTVSS	high polyreactivity
QVQLVESGGGLVQAGGSLRLSCAASGRIFSKYTMGWYRQAPGKERELVAAISGSGTSTYYADSVKGRFTISRDNAKNTVYLQMNSLKPEDTAVYYCNAVKSWGHPGRYYWGQGTQVTVSS	high polyreactivity
QVQLVESGGGLVQAGGSLRLSCAASGRIFSLNAMGWYRQAPGKERELVAGIRKRGGSTYYADSVKGRFTISRDNAKNTVYLQMNSLKPEDTAVYYCAADRFAFYGRYRGPYYYWGHGTQVTVSS	high polyreactivity
QVQLVESGGGLVQAGGSLRLSCAASGRIFSLNDMGWYRQAPGKERELVATIRGRGTSTYYADSVKGRFTISRDNAKNTVYLQMNSLKPEDTAVYYCAARGHGAYGYWGQGSQVTVSS	low polyreactivity
QVQLVESGGGLVQAGGSLRLSCAASGRIFSLNTMGWYRQAPGKERELVATITKRGGNTYYADSVKGRFTISRDNAKNTVYLQMNSLKPEDTAVYYCAVPRSITYRYGYWGQGTQVTVSS	high polyreactivity
QVQLVESGGGLVQAGGSLRLSCAASGRIFSMNAMGWYRQAPGKERELVAGIRKRGGSTYYADSVKGRFTISRDNAKNTVYLQMNSLKPEDTAVYFCAAQPALTYRFYYLGQGTQVTVSS	high polyreactivity
QVQLVESGGGLVQAGGSLRLSCAASGRIFSNNAMGWYRQAPGKERELVAAIDSSGDSTNYADSVKGRFTISRDNAKNTVYLQMNSLKPEDTAVYYCNARQSGRRVWQYLYGYWGQGTQVTVSS	high polyreactivity
QVQLVESGGGLVQAGGSLRLSCAASGRIFSNYAMGWYRPAPGKESELVAAISRGGGRTFYADSVTGRFTISRDNAKNTVYLQKNSLKPEDTAVYYCATRSYYVKGDYWGQATQVTVSS	high polyreactivity
QVQLVESGGGLVQAGGSLRLSCAASGRIFSPYAMGWYRQATGKERELVAAIDWDGGGTYYADSVKGRFTISRDNAKNTVYLQMNSLKPEDTAVYYCAAETDLANGTSPSDYWGQGTQVTVSS	low polyreactivity
